This passage reports response results from publication PMC12805100 (2025).

Sequences and labels used below:
B1: 3xFLAG-WT hTRPA1 [human] / CaM-agarose resin (calmodulin coupled to agarose) [not stated] (parent complex)
chain 1: MKRSLRKMWRPGEKKEPQGVVYEDVPDDTEDFKESLKVVFEGSAYGLQNFNKQKKLKRCDDMDTFFLHYAAAEGQIELMEKITRDSSLEVLHEMDDYGNTPLHCAVEKNQIESVKFLLSRGANPNLRNFNMMAPLHIAVQGMNNEVMKVLLEHRTIDVNLEGENGNTAVIIACTTNNSEALQILLKKGAKPCKSNKWGCFPIHQAAFSGSKECMEIILRFGEEHGYSRQLHINFMNNGKATPLHLAVQNGDLEMIKMCLDNGAQIDPVEKGRCTAIHFAATQGATEIVKLMISSYSGSVDIVNTTDGCHETMLHRASLFDHHELADYLISVGADINKIDSEGRSPLILATASASWNIVNLLLSKGAQVDIKDNFGRNFLHLTVQQPYGLKNLRPEFMQMQQIKELVMDEDNDGCTPLHYACRQGGPGSVNNLLGFNVSIHSKSKDKKSPLHFAASYGRINTCQRLLQDISDTRLLNEGDLHGMTPLHLAAKNGHDKVVQLLLKKGALFLSDHNGWTALHHASMGGYTQTMKVILDTNLKCTDRLDEDGNTALHFAAREGHAKAVALLLSHNADIVLNKQQASFLHLALHNKRKEVVLTIIRSKRWDECLKIFSHNSPGNKCPITEMIEYLPECMKVLLDFCMLHSTEDKSCRDYYIEYNFKYLQCPLEFTKKTPTQDVIYEPLTALNAMVQNNRIELLNHPVCKEYLLMKWLAYGFRAHMMNLGSYCLGLIPMTILVVNIKPGMAFNSTGIINETSDHSEILDTTNSYLIKTCMILVFLSSIFGYCKEAGQIFQQKRNYFMDISNVLEWIIYTTGIIFVLPLFVEIPAHLQWQCGAIAVYFYWMNFLLYLQRFENCGIFIVMLEVILKTLLRSTVVFIFLLLAFGLSFYILLNLQDPFSSPLLSIIQTFSMMLGDINYRESFLEPYLRNELAHPVLSFAQLVSFTIFVPIVLMNLLIGLAVGDIAEVQKHASLKRIAMQVELHTSLEKKLPLWFLRKVDQKSTIVYPNKPRSGGMLFHIFCFLFCTGEIRQEIPNADKSLEMEILKQKYRLKDLTFLLEKQHELIKLIIQKMEIISETEDDDSHCSFQDRFKKEQMEQRNSRWNTVLRAVKAKTHHLEP
chain 2: not shown

Variants of B1 are the subject of the test. As to the kind of experiment: CaM-agarose pulldown, quantified immunoblot; 2 mM Ca2+; lysates of HEK293T cells; n = 3; read off a plot. (In general: In western blotting, separated proteins are transferred to a membrane and probed.)
Regarding chain 1 W1103A, the response was ~0.36 normalized pulldown (relative to WT hTRPA1 0.1 μM Ca2+ average). To chain 1 K989S, chain 1 R996S, chain 1 K997S, chain 1 K1001S, chain 1 W1103A belongs ~0.05 normalized pulldown (relative to WT hTRPA1 0.1 μM Ca2+ average).
